The nature of this data set: self-splicing fitness, log relative to wild type (ln ratio); higher = more splicing; Tetrahymena group I intron in knt gene, E. coli kanamycin selection, DiMSum; sequences stand for … in CUCUCU…GGAGGGAAAAGUUAUCAGGCAUGCACCUGGUAGCUAGUCUUUAAACCAAUAGAUUGCAUCGGUUUAAAAGGCAAGACCGUCAAAUUGCGGGAAAGGGGUCAACAGCCGUUCAGUACCAAGUCUCAGGGGAAACUUUGAGAUGGCCUUGCAAAGGGUAUGGUAAUAAGCUGACGGACAUGGUCCUAACCACGCAGCCAAGUCCUAAGUCAACAGAUCUUCUGUUGAUAUGGAUGCAGUUCACAGACUAAAUGUCGGUCGGGGAAGAUGUAUUCUUCUCAUAAGAUAUAGUCGGACCUCUCCUUAAUGGGAGCUAGCGGAUGAAGUGAUGCAACACUGGAGCCGCUGGGAACUAAUUUGUAUGCGAAAGUAUAUUGAUUAGUUUUGGAGUACUCGUGGUCG
The essentials:
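Pooled colonies went to amplicon sequencing on an Illumina HiSeq 2500 after six replicate transformations. The plates were LB agar with 100 μg/mL carbenicillin, 50 μM IPTG and 0.2% rhamnose, with or without 25 μg/mL kanamycin, incubated overnight at 37°C or 30°C. The E. coli BL21(DE3) library had all eight P1ex-region intron nucleotides randomised, the intron placed in the knt kanamycin-resistance gene on pET-22b(+). DiMSum fitness is the error-weighted combination of replicate fold changes, kanamycin against none, normalised to wild type.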

From the supplement of paper PMC7877785 come the findings set out here.

± gives the uncertainty stated by the source.

Take GCGAAGCAAUAUUACGGGCU: the “self-splicing fitness (ln)” value was -2.68 ± 0.19 (30 °C) and -1.88 ± 0.17 (37 °C).

GCUAAGCAAUAUUACGUACU: the “self-splicing fitness (ln)” value reads like this: (30 °C) -0.353 ± 0.051; (37 °C) -0.348 ± 0.068. Turning to CACGAGCAAUAUUACGUCAG, the “self-splicing fitness (ln)” value is -3.42 ± 0.13 (30 °C) and -2.32 ± 0.11 (37 °C). The corresponding values for AUGCAGCAAUAUUACGGUUC are -2.28 ± 0.088 and -1.83 ± 0.13. For UACUAGCAAUAUUACGGGUG, in that order: -0.974 ± 0.077 and -0.232 ± 0.075. As for UCUAAGCAAUAUUACGACGU, the “self-splicing fitness (ln)” value is, setting by setting: (30 °C) -0.257 ± 0.087; (37 °C) -0.334 ± 0.11. The corresponding values for UACGAGCAAUAUUACGCACU are -2.42 ± 0.29 and -2.13 ± 0.28. For the sequence CGUAAGCAAUAUUACGCGGG, the “self-splicing fitness (ln)” value by setting is: (30 °C) -2.35 ± 0.15; (37 °C) -2.72 ± 0.25. The corresponding values for UCUAAGCAAUAUUACGGUAC are -3.5 ± 0.3 and -2.78 ± 0.4. The corresponding values for CUAGAGCAAUAUUACGACGA are -3.35 ± 0.13 and -1.36 ± 0.13. For AGUAAGCAAUAUUACGAUAU, in that order: -1.95 ± 0.13 and -0.493 ± 0.15.

For GACAAGCAAUAUUACGUCUG, the “self-splicing fitness (ln)” value reads like this: (30 °C) -3.26 ± 0.16; (37 °C) -2.89 ± 0.15. With UUUGAGCAAUAUUACGGUAU, the “self-splicing fitness (ln)” value runs as follows: (30 °C) -4.23 ± 0.36; (37 °C) -2.73 ± 0.38. For GGAGAGCAAUAUUACGGUCU, for the setting “37 °C”, the “self-splicing fitness (ln)” value is -2.31 ± 0.48. For the sequence GACAAGCAAUAUUACGGUUG, the “self-splicing fitness (ln)” value (30 °C) was -2.3 ± 0.087 and the “self-splicing fitness (ln)” value (37 °C) is -1.15 ± 0.11.

Consider UCUCAGCAAUAUUACGGGAU, for which the “self-splicing fitness (ln)” value was -4.25 ± 0.27 (30 °C) and -2.87 ± 0.19 (37 °C). Regarding UCCAAGCAAUAUUACGAUUU, the “self-splicing fitness (ln)” value (30 °C) is -3.72 ± 0.26 and the “self-splicing fitness (ln)” value (37 °C) is -2.71 ± 0.28. For UAAGAGCAAUAUUACGGCCA, in that order: -1.81 ± 0.3 and -1.48 ± 0.37. The corresponding values for CCAAAGCAAUAUUACGUUCG are -0.496 ± 0.055 and 0.165 ± 0.069. GUUAAGCAAUAUUACGGCCU: the “self-splicing fitness (ln)” value (30 °C) was -0.808 ± 0.29 and the “self-splicing fitness (ln)” value (37 °C) was 0.635 ± 0.44. The corresponding values for UGGAAGCAAUAUUACGACAG are -0.462 ± 0.13 and -0.603 ± 0.19. For UCACAGCAAUAUUACGGUCU, in that order: -1.01 ± 0.081 and -1.67 ± 0.11.

For CAGAAGCAAUAUUACGUUGA, the “self-splicing fitness (ln)” value reads like this: (30 °C) -2.84 ± 0.2; (37 °C) -1.53 ± 0.15. The corresponding values for CAACAGCAAUAUUACGGAGA are -3.07 ± 0.2 and -1.82 ± 0.2. AUCAAGCAAUAUUACGGAGG: the “self-splicing fitness (ln)” value is -2.43 ± 0.096 (30 °C) and -1.36 ± 0.13 (37 °C). The corresponding values for AUUUAGCAAUAUUACGCACG are -1.9 ± 0.28 and -0.778 ± 0.2. The corresponding values for AGGUAGCAAUAUUACGGUAG are -3.883 ± 0.03 and -2.99 ± 0.042. UAUAAGCAAUAUUACGGGAG: the “self-splicing fitness (ln)” value was -2.07 ± 0.11 (30 °C) and -1.64 ± 0.12 (37 °C). For the sequence GACGAGCAAUAUUACGAGGG, the “self-splicing fitness (ln)” value was -3.12 ± 0.25 (30 °C) and -2.97 ± 0.35 (37 °C). Regarding GUCUAGCAAUAUUACGGCCA, the “self-splicing fitness (ln)” value reads like this: (30 °C) -1.87 ± 0.35; (37 °C) -0.587 ± 0.22. The corresponding values for UGAUAGCAAUAUUACGUACG are -0.418 ± 0.074 and 0.13 ± 0.1. For the sequence CUCCAGCAAUAUUACGCUGA, the “self-splicing fitness (ln)” value runs as follows: (30 °C) -2.59 ± 0.18; (37 °C) -2.65 ± 0.22. For AAUUAGCAAUAUUACGCCUC, in that order: -1.22 ± 0.18 and -2.47 ± 0.25. For the sequence UGUAAGCAAUAUUACGGCUC, the “self-splicing fitness (ln)” value (30 °C) was -1.94 ± 0.19 and the “self-splicing fitness (ln)” value (37 °C) is -1.32 ± 0.29. In the case of CGGAAGCAAUAUUACGCUCU, the “self-splicing fitness (ln)” value (37 °C) is -1.81 ± 0.44. On the same count and under the same terms, then GUUCAGCAAUAUUACGGGCA, with -1.11 ± 0.34. For AGUAAGCAAUAUUACGACGA, the “self-splicing fitness (ln)” value is, setting by setting: (30 °C) -1.15 ± 0.073; (37 °C) -0.782 ± 0.079. AGCAAGCAAUAUUACGUUGC: the “self-splicing fitness (ln)” value by setting is: (30 °C) -3.69 ± 0.19; (37 °C) -1.08 ± 0.16.

As for UUUGAGCAAUAUUACGUCAU, the “self-splicing fitness (ln)” value runs as follows: (30 °C) -3.88 ± 0.34; (37 °C) -1.64 ± 0.21.

As for ACCAAGCAAUAUUACGGCCC, the “self-splicing fitness (ln)” value is -0.856 ± 0.11 (30 °C) and 0.112 ± 0.16 (37 °C). For the sequence GGCCAGCAAUAUUACGCGUU, the “self-splicing fitness (ln)” value reads like this: (30 °C) -0.164 ± 0.09; (37 °C) 0.0494 ± 0.12. Consider UCUGAGCAAUAUUACGGAAC, for which the “self-splicing fitness (ln)” value runs as follows: (30 °C) -4.04 ± 0.39; (37 °C) -3.05 ± 0.28. For UCCCAGCAAUAUUACGGUAA, in that order: 0.0812 ± 0.099 and 0.262 ± 0.1. For the sequence AUCCAGCAAUAUUACGGAAA, the “self-splicing fitness (ln)” value (30 °C) is -1.07 ± 0.092 and the “self-splicing fitness (ln)” value (37 °C) is -1.02 ± 0.084. Turning to UUGGAGCAAUAUUACGCAUU, the “self-splicing fitness (ln)” value (30 °C) is -1.87 ± 0.33. For AGACAGCAAUAUUACGAACA, the “self-splicing fitness (ln)” value is, setting by setting: (30 °C) -1.33 ± 0.1; (37 °C) -0.502 ± 0.099. For AUGCAGCAAUAUUACGGACA, in that order: -1.13 ± 0.15 and -0.421 ± 0.13. For CCGCAGCAAUAUUACGCACC, in that order: -3.46 ± 0.23 and -2.05 ± 0.24. As to UCCGAGCAAUAUUACGCGCC, the “self-splicing fitness (ln)” value (30 °C) was -2.88 ± 0.4. For CGGGAGCAAUAUUACGAUGG, the “self-splicing fitness (ln)” value is, setting by setting: (30 °C) -2.44 ± 0.2; (37 °C) -0.953 ± 0.24. As for GGUCAGCAAUAUUACGCAAC, the “self-splicing fitness (ln)” value was -0.639 ± 0.11 (30 °C) and -0.859 ± 0.17 (37 °C).

As for CGAGAGCAAUAUUACGAGGC, the “self-splicing fitness (ln)” value (30 °C) is -1.83 ± 0.24 and the “self-splicing fitness (ln)” value (37 °C) is -0.565 ± 0.48. Turning to CUUAAGCAAUAUUACGAUCG, the “self-splicing fitness (ln)” value was -0.53 ± 0.082 (30 °C) and 0.874 ± 0.12 (37 °C). For the sequence CUCAAGCAAUAUUACGAAAC, the “self-splicing fitness (ln)” value reads like this: (30 °C) -3.86 ± 0.32; (37 °C) -1.55 ± 0.17. As to UUUGAGCAAUAUUACGCUGA, the “self-splicing fitness (ln)” value (30 °C) was -2.58 ± 0.34. Consider AGCUAGCAAUAUUACGGGAA, for which the “self-splicing fitness (ln)” value by setting is: (30 °C) -3.13 ± 0.28; (37 °C) -1.67 ± 0.22. For AAUCAGCAAUAUUACGUGGC, in that order: -3.57 ± 0.17 and -1.83 ± 0.12. As to ACACAGCAAUAUUACGGUCU, the “self-splicing fitness (ln)” value was -0.341 ± 0.05 (30 °C) and 0.298 ± 0.067 (37 °C). For the sequence UUCGAGCAAUAUUACGCUGC, where the note is “30 °C”, the “self-splicing fitness (ln)” value was -3.44 ± 0.44. Regarding UUUCAGCAAUAUUACGUUUC, under “37 °C”, the “self-splicing fitness (ln)” value was -2.28 ± 0.29. Consider GAGCAGCAAUAUUACGUGAU, for which the “self-splicing fitness (ln)” value is -2.21 ± 0.082 (30 °C) and -0.968 ± 0.084 (37 °C). For UACUAGCAAUAUUACGUUUG, in that order: -3.28 ± 0.18 and -2.21 ± 0.29.
